In publication doi:10.1101/2024.12.26.630380 one finds binding result and Kd data, which are given here for one molecule.

Common to all, as to test: single-molecule fluorescence
The target of one data set is T1, pMcsB (Geobacillus stearothermophilus (printed …, UniProt P0DMM5)).
T1 sequence: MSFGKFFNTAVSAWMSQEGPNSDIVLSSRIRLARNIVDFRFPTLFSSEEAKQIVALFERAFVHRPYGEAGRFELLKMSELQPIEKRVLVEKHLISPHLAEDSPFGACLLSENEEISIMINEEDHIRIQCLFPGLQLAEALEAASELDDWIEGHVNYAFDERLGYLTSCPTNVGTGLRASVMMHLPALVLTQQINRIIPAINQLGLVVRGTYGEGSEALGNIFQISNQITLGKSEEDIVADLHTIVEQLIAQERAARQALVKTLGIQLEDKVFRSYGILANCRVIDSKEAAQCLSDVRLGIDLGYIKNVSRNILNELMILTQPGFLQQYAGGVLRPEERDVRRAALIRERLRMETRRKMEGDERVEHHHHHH

A further data set has as its target T2, CtsR (Geobacillus stearothermophilus (printed …, UniProt C3W947)).
T2 sequence: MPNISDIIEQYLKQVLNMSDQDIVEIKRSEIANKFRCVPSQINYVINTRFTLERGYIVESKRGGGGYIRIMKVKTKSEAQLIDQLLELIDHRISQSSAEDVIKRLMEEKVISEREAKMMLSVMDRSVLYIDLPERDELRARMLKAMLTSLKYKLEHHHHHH

The target of a further data set is T3, pMcsB-HaloTag (Geobacillus stearothermophilus (printed …, UniProt P0DMM5 1-363)).
T3 sequence: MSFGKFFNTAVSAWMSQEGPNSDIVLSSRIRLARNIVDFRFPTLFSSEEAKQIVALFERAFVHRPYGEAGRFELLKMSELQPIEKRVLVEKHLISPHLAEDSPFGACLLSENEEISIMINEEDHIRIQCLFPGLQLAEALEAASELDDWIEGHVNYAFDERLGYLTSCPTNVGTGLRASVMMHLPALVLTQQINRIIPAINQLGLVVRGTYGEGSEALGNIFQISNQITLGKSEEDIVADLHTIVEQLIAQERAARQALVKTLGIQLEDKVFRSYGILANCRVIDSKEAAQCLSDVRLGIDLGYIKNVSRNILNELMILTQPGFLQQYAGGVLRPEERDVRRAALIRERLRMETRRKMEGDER

The Kd is the constant that tells how readily two partners part at equilibrium. Low values mean tighter binding, high ones weaker binding.

B1: cognate Cy3 DNA probe (T7 label) (dsDNA)
DNA 1: CGATTACGGCAATTCAGGAATACCGCTAATG
DNA 2: GCTGATTAAGGTCAAATATAGTCAAAATAGAGTTCATTAGCGGTATTCCTGAATTGCCGTAATCG
DNA 3: CTCTATTTTGACTATATTTGACCTTAATCAGC
modifications: amino-C6-dT at T7 of strand 3 (S8 printed split around it)
Regarding B1, the binding result with pMcsB and with pMcsB-HaloTag was “no binding” each time. Further, the Kd in the data set with CtsR is ~12 nM.
